# Test results: article PMC314469, “Protein Interaction Networks by Proteome Peptide Scanning” (PLoS Biology, 2004)
# T1: amphyphisin SH3 (AMPH_HUMAN), P49418
# T1 chain: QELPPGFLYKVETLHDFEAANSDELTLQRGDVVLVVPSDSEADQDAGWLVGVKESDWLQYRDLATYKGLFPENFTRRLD
# Tests used:
# [1] = target: endophilin SH3 (SH3G2_HUMAN), Q99962; experiment: SPOT array
# [2] = target: T1, amphyphisin SH3 (AMPH_HUMAN), P49418; experiment: SPOT array
Binder,"normalised SPOT signal, Boehringer light units (BLU); mean over the file's lines of this peptide [1]","normalised SPOT signal, Boehringer light units (BLU); mean over the file's lines of this peptide [2]"
LPENFRRPQTDQAV [Q9H8X4 102-115],40.7,20.2
LLSQLGRPFREYEL [Q9C095 450-463],0,204
LLPGPGRPPPPPTK [Q9UJJ7 274-288],3240,103
LLLPPPRPPHSDIT [Q9H6X1 45-59],1430,873
LPEVPEKPPAGESV [Q9NVI4 527-541],57.1,39.6
LLYTLRRPYFRKME [P36888 164-177],99,41.1
LPFYFKRPPINVAI [P78346 133-146],73.2,16.4
LPGEPRRPAEIYHS [Q9P006 57-70],44.5,19.2
LLNTLKRPKRPPLK [Q96NX2 21-34],85,443
LLLGIRRPEFLSRP [Q9NWT5 57-70],1340,51.2
APPVLKRPILQSLL [Q14700 527-540],309,39.2
LLLLLYRPPRYQIA [O60725 54-67],89.6,159
LLLHPRRPRLHPGT [O95141 51-64],1540,87
LLMVPRRPGYGTMG [Q96JZ0 14-27],1280,816
LLPFPLRPPSPHSP [Q9HAF8 97-111],9850,178
LNSSFSRPDRPASV [P18627 187-200],123,4090
APPQIRRPNREVRP [Q9BW62 109-122],638,3240

# Now from value to binder:
"normalised SPOT signal, Boehringer light units (BLU); mean over the file's lines of this peptide [1]","normalised SPOT signal, Boehringer light units (BLU); mean over the file's lines of this peptide [2]",Binder
3500,5020,LLPALRRPSRASSA [O95327 190-203]
1020,450,LMIHPPRPPKVLGL [P39191 481-494]
13.3,28.2,LLYLPLKPPNMFPS [Q9H799 457-471]
212,71.8,LNKYLSRPKRFEVA [Q9Y648 264-277]
167,335,LMIIIARPARLLES [Q9BYE8 416-429]
150,102,LPEELPRPRRPPPE [P22460 81-94]
3260,183,LLMVPRRPGYGAMG [Q9H9G7 14-27]
210,49.7,LPHWLRRPVYSLYI [Q9UG56 133-146]
207,6720,LNRGPSRPRRQAGR [Q9NQA3 32-45]
1060,6760,LPIAFIRPFREHHI [Q9UKL1 106-119]
205,702,APPRLARPPRFYEA [Q9HAH7 279-292]
62.4,1190,LNPDFSRPNRKYTW [P35573 181-194]
6910,10700,LPARPRRPTPTMVP [Q13545 30-43]
17.6,23.1,LPETFRRPQIDPAV [Q9UJL8 67-80]
